Test results: patent US20210380703A1
Substitutions are numbered along the chain they refer to.

B1: 370_A08 (antibody, V domains shown)
VH: EVQLLESGGGLVQPGGSLRLSCAASGFTFDSYSMNWVRQAPGKGLEWVSSINYNSGYTGYADSVKGRFTISRDNSKNTLYLQMNSLRAEDTAVYYCARSATWHDTHLDYWGQGTLVTVSS
VL: DIQMTQSPSSLSASVGDRVTITCRASQSIVTYLNWYQQKPGKAPKLVIYAATSRASGVPSRFSGSGSGTDFTLTISSLQPEDFATYYCQQSYDLPLTFGGGTKVEIK
B2: 375_F01 (antibody, V domains shown)
VH: B1 VH with D30S
VL: B1 VL with T31S, L94N
B3: 367_H08 (antibody, V domains shown)
VH: B1 VH with S33G, S55G, G59S, S99A
VL: B1 VL with V30L, L33V, V47L, A55H, D93N
B4: 368_B04 (antibody, V domains shown)
VH: B1 VH with S33G, N35H, S55G, G59S, S99A
VL: B1 VL with T31S, D93E, L94N
B5: 368_B12 (antibody, V domains shown)
VH: B1 VH with S33G, N35H, S50G, G59S, S99A
VL: B1 VL with T31S, L33V, V47L
B6: 368_C07 (antibody, V domains shown)
VH: B1 VH with D30S, S33G, N35H, S49A, S50G, G59S, S99A
VL: B1 VL with T31S, L33V, D93E, L94N
B7: 368_C12 (antibody, V domains shown)
VH: B1 VH with S33G, N35H, S49A, S55G, G59S, S99A
VL: B1 VL with V30L, V47L, Y92D, D93S, L94N
B8: 368_D06 (antibody, V domains shown)
VH: B1 VH with D30S, S33G, S50N, S55G, S99A
VL: B1 VL with V30L, T31S, L33V, A55H, D93E, L94N
B9: 368_E08 (antibody, V domains shown)
VH: B1 VH with S33G, N35H, S49A, S50N, S99A
VL: B1 VL with V30L, T31S, L33V, R54L, A55H, D93E, L94T
B10: 368_G11 (antibody, V domains shown)
VH: B1 VH with S33G, N35H, S50G, T58K, G59S, S99A, H106A
VL: B1 VL with V30L, V47L, Y92D, D93N, L94T
B11: 368_H03 (antibody, V domains shown)
VH: B1 VH with S31D, N35H, S49A, S55G, S99A
VL: B1 VL with V30L, T31S, L33V, A51V, A55H, D93S, L94N
B12: 369_A04 (antibody, V domains shown)
VH: B1 VH with S33G, N35H, S49A, S55G, T58K, G59S, S99A
VL: B1 VL with T31S, L33V, R54L
B13: 369_A12 (antibody, V domains shown)
VH: B1 VH with D30S, N35H, S49A, S99A
VL: B1 VL with V30L, V47L, A55H
B14: 369_B07 (antibody, V domains shown)
VH: B1 VH with S33G, N35H, S49A, S50N, S55G, T58K, G59S, S99A
VL: B1 VL with T31S, L33V, R54L
B15: 369_B08 (antibody, V domains shown)
VH: B1 VH with S33G, N35H, S55G, G59S, S99A
VL: B1 VL with V30L, T31S, L33V, V47L, D93E, L94S
B16: 369_C06 (antibody, V domains shown)
VH: B1 VH with D30S, N35H, S55G, T58K, G59S, S99A
VL: B1 VL with V30L, T31S, L33V, V47L, L94S
B17: 365_G07 (antibody, V domains shown)
VH: B1 VH with S33G, N35H, S55G, G59S, S99A, T101N, H106A
VL: B1 VL with T31S, V47L, L94N
B18: 369_C09 (antibody, V domains shown)
VH: B1 VH with D30S, S33G, N35H, S55G, S99A
VL: B1 VL with T31S, A55H
B19: 369_C11 (antibody, V domains shown)
VH: B1 VH with D30S, S31D, S33G, N35H, S49A, S50G, S55G, S99A
VL: B1 VL with V30L, T31S, L94T
B20: 369_E03 (antibody, V domains shown)
VH: B1 VH with D30S, S33G, N35H, S49A, S50G, S55G, G59S, S99A
VL: B1 VL with V30L, T31S, L33V, V47L, R54L, D93E, L94N
B21: 370_B06 (antibody, V domains shown)
VH: B1 VH with D30S, S33G, N35H, S49A, S50G, S55G, G59S, S99A
VL: B1 VL with T31S, L33V, D93E, L94T
B22: 370_E12 (antibody, V domains shown)
VH: B1 VH with S33G, N35H, S49A, S50G, S55G, G59S, S99A
VL: B1 VL with V30L, T31S, L33V, V47L, D93E, L94N
B23: 370_H05 (antibody, V domains shown)
VH: B1 VH with D30S, S33G, N35H, S50N, S55G, G59S, S99A
VL: B1 VL with V30L, T31S, V47L, T52S, R54L, A55Q, Y92D, D93S
B24: 371_A05 (antibody, V domains shown)
VH: B1 VH with D30S, S33G, N35H, S50N, S55G, T58K, G59S, S99A
VL: B1 VL with V30L, V47L, Y92D, D93N
B25: 371_B02 (antibody, V domains shown)
VH: B1 VH with S33G, S50N, S55G, G59S, S99A
VL: B1 VL with V30L, L33V, R54L, D93N, L94N
B26: 371_B11 (antibody, V domains shown)
VH: B1 VH with D30S, N35H, S49A, G59S, S99A
VL: B1 VL with V30L, V47L, D93E
B27: 371_C02 (antibody, V domains shown)
VH: B1 VH with S33G, N35H, S49A, S50G, S99A
VL: B1 VL with V30L, L33V, V47L, T52S, R54L, A55Q, L94T
B28: 371_D05 (antibody, V domains shown)
VH: B1 VH with S31D, S33G, N35H, S50G, S55G, G59S, S99A
VL: B1 VL with V30L, V47L, T52S, R54L, A55Q, L94S
B29: 371_F07 (antibody, V domains shown)
VH: B1 VH with D30S, S33G, N35H, S49A, S50G, S55G, G59S, S99A
VL: B1 VL with V30L, V47L, R54L, Y92D, D93S, L94N
B30: 372_D07 (antibody, V domains shown)
VH: B1 VH with D30S, S33G, S49A, S50G, S55G, G59S, S99A
VL: B1 VL with V30L, T31S, V47L, D93E, L94S
B31: 373_B01 (antibody, V domains shown)
VH: B1 VH with S33G, N35H, S50G, S55G, T58K, G59S, S99A
VL: B1 VL with V30L, T31S, L33V
B32: 373_D11 (antibody, V domains shown)
VH: B1 VH with D30S, S33G, N35H, S49A, S50G, S55G, G59S, S99A
VL: B1 VL with V30L, L33V, V47L, L94N
B33: 373_G06 (antibody, V domains shown)
VH: B1 VH with D30S, S33G, N35H, S49A, S99A
VL: B1 VL with V30L, T31S, L33V, V47L, R54L, D93N
B34: 374_A10 (antibody, V domains shown)
VH: B1 VH with D30S, S33G, N35H, S50G, S55G, G59S, S99A
VL: B1 VL with V30L, T31S, L33V, V47L, L94T
B35: 374_A12 (antibody, V domains shown)
VH: B1 VH with S33G, N35H, S55G, G59S, S99A
VL: B1 VL with V30L, V47L, Y92D, D93S, L94N
B36: 366_A02 (antibody, V domains shown)
VH: B1 VH with S33G, S49A, T58K, S99A, T101N
VL: B1 VL with T31S, L33V, V47L
B37: 374_B01 (antibody, V domains shown)
VH: B1 VH with S33G, N35H, S49A, S50G, G59S, S99A
VL: B1 VL with V30L, T31S, V47L, T52S, R54L, A55Q, L94S
B38: 374_B07 (antibody, V domains shown)
VH: B1 VH with D30S, S33G, N35H, S55G, T58K, G59S, S99A
VL: B1 VL with V30I, T31S, V47L, R54L, D93E, L94S
B39: 375_C03 (antibody, V domains shown)
VH: B1 VH with N35H, S50G, S55G, G59S, S99A
VL: B1 VL with V30L, T31S, L33V, D93E, L94S
B40: 375_D02 (antibody, V domains shown)
VH: B1 VH with D30S, S50N, S55G, G59S, S99A
VL: B1 VL with V30L, V47L, T52S, R54L, A55Q, D93E
B41: 375_H04 (antibody, V domains shown)
VH: B1 VH with D30S, S33G, N35H, S49A, S50G, S99A
VL: B1 VL with V30L, T31S, D93S, L94N
B42: 376_D08 (antibody, V domains shown)
VH: B1 VH with S33G, S49A, S50N, T58K, G59S, S99A, H106A
VL: B1 VL with V30L, A50Y, T52N, S53N, A55P, D93S, L94N
B43: 376_F09 (antibody, V domains shown)
VH: B1 VH with N35H, S55G, T58K, G59S, S99A
VL: B1 VL with V30L, L33V, V47L, A51V, L94T
B44: 366_A04 (antibody, V domains shown)
VH: B1 VH with D30S, S33G, S49A, S50G, S55G, G59S, S99A, T101N, H106A
VL: B1 VL with V30L, R54L, Y92D, L94S
B45: 365_C05 (antibody, V domains shown)
VH: B1 VH with D30S, S31D, S50G, S55G, T58K, S99G, T101N
VL: B1 VL with V30L, V47L, A55H, D93N, L94S
B46: 365_E12 (antibody, V domains shown)
VH: B1 VH with D30S, S31D, S33G, S50N, S55G, S99G, T101N, H106A
VL: B1 VL with V30L, V47L, D93E, L94T
B47: 365_F02 (antibody, V domains shown)
VH: B1 VH with D30S, S50G, S55G, T58K, S99G, T101N
VL: B1 VL with V30L, L33V, V47L, A55H, L94T
B48: 365_F03 (antibody, V domains shown)
VH: B1 VH with S55G, G59S, S99G, T101N
VL: B1 VL with V30L, T31S, V47L, L94N

Molecular target: human Fc (human)
Assay: ELISA, negative control

| Binder | optical density |
| --- | --- |
| B1 | 0.319 OD |
| B2 | 0.166 OD |
| B3 | 0.312 OD |
| B4 | 0.304 OD |
| B5 | 0.567 OD |
| B6 | 0.282 OD |
| B7 | 0.346 OD |
| B8 | 0.265 OD |
| B9 | 0.255 OD |
| B10 | 0.306 OD |
| B11 | 0.343 OD |
| B12 | 0.353 OD |
| B13 | 0.461 OD |
| B14 | 0.319 OD |
| B15 | 0.309 OD |
| B16 | 0.414 OD |
| B17 | 0.331 OD |
| B18 | 0.32 OD |
| B19 | 0.378 OD |
| B20 | 0.63 OD |
| B21 | 0.441 OD |
| B22 | 0.656 OD |
| B23 | 0.364 OD |
| B24 | 0.369 OD |

| Binder | optical density |
| --- | --- |
| B25 | 0.449 OD |
| B26 | 0.549 OD |
| B27 | 0.372 OD |
| B28 | 0.339 OD |
| B29 | 0.425 OD |
| B30 | 0.472 OD |
| B31 | 0.197 OD |
| B32 | 0.364 OD |
| B33 | 0.196 OD |
| B34 | 0.23 OD |
| B35 | 0.308 OD |
| B36 | 0.336 OD |
| B37 | 0.173 OD |
| B38 | 0.25 OD |
| B39 | 0.217 OD |
| B40 | 0.191 OD |
| B41 | 0.181 OD |
| B42 | 0.232 OD |
| B43 | 0.25 OD |
| B44 | 0.319 OD |
| B45 | 0.271 OD |
| B46 | 0.338 OD |
| B47 | 0.326 OD |
| B48 | 0.347 OD |
